Results as given in patent publication US20140154245A1 (L AND K BIOMED, published 2014).
Values belong to the binder of their own block, whether it stands above or below them.

Assays:
[1] = biological target: T1, human EMAPII (endothelial monocyte activating polypeptide II) antigen (human, UniProt Q12904 1-312, limits assumed); experiment: ELISA, EMAPII antigen coated on the plate, antibody titrated
T1 construct: also called EMAPII antigen; p43
T1 sequence: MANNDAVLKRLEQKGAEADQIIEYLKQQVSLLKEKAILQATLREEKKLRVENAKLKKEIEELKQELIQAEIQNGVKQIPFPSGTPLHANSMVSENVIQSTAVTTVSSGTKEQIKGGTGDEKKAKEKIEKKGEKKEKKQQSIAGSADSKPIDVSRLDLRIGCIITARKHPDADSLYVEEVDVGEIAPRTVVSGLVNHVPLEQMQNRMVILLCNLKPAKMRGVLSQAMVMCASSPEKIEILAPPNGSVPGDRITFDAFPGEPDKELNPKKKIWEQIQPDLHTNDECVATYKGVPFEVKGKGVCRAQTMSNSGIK
Protocol: (§1) Wells of a 96 well plate were coated with 100 μl of different concentrations of EMAPII antigen (10 μg/ml, 5 μg/ml, 2.5 μg/ml, 1 μg/ml, 0.5 μg/ml, 0.2 μg/ml) and were incubated at 37° C. for 2 hours. The coated antigens were blocked using BSA and washed with washing buffer. Dilutions of the parental murine anti-EMAPII antibody (starting at 1 μg/ml, two-fold serial dilution) were added to the antigens and incubated for 2 hours. The mixture was washed three times and anti-IgG-HRP antibody was added to the mixture and incubated for 1 hour. The mixture was washed with washing buffer three times. The substrate was added to the mixture and maintained for 30 minutes. After developing, stop solution was added and detected absorbance at the wavelength of 450 nm (FIG. 12). Bound antibody was detected with anti-mouse IgG-HRP conjugate. A concentration of 2.5 μg/ml antigen was selected for testing the chimeric clones.
(§2) The ability of mouse/human chimeric antibody BAP015_{—}1 to bind to the EMAPII antigen was determined by using the ELISA protocol provided by StemScience and the optimized conditions determined as described above. Bound chimeric antibody was detected with anti-human-IgG HRP conjugate (FIG. 13). All 3 clones tested bind to EMAPII. The binding curves of all 3 clones are very similar to each other and to the murine antibody.

[2] = biological target: T1, human EMAPII (endothelial monocyte …); experiment: ELISA, EMAPII antigen coated on the plate, antibody titrated (3 clones)
Protocol: as §1, §2

EC50 [1]: 0.0209 µg/mL
B1: mouse anti-EMAPII monoclonal antibody (antibody, V domains shown)
VH: QVQLQQSGAELARPGASVKMSCKASGYTFTSYTMHWVKQRPGQGLEWIGYINPSSGFTNYNQKFKDKATLTADKSSSTAYMQLSSLTSEDSAVYYCASRFAYWGQG
VL: DIVMTQSHKFMSTSVGDRVSITCKASQDVSTAVAWYQQKPGQSPKLLIFSASYRYTGVPDRFTGSGSGTDFTFTISSVQAEDLAVYYCQQHYSTPYTFGQG
notes: Mouse IgG1 with kappa light chain, from a hybridoma; also called murine EMAPII mAb; parental murine anti-EMAPII antibody

EC50 [2]: 0.0215 to 0.0302 µg/mL
B2: mouse/human chimeric antibody BAP015-1 (antibody, V domains shown)
VH: B1 VH
VL: B1 VL
notes: VL is fused to a human kappa constant region and VH to a human IgG1 constant region (full-length IgG1, from CHO-S supernatant); Three plasmid clones of the same construct were tested; they are treated as one molecule; also called chimeric anti-EMAPII antibody; chimeric clone BAP015-1
